Results as given in article doi:10.1101/2024.12.05.626941 (bioRxiv, 2024).

Target: the molecule itself
Experiment: SEC

B1: Physcomitrella patens adenosine kinase 1 (PpADK1) (enzyme, UniProt O49923 1-343, looked up)
chain: MASEGVLLGMGNPLLDISCVVDDAFLEKYGLTLNNAILAEDKHLPMYKELAANPDVEYIAGGATQNTIRIAQWMLGESNATSYFGCVGKDEYGDRMFKLASEGGVNIRYDVDEDLPTGTCGVLVVKGERSLVANLSAANKYKIDHLKKPENWAFVEKAKYIYSAGFFLTVSPESMMTVAKHAAETGKYYMINLAAPFICQFFKDPLMELFPYVDFIFGNESEARAFAQVQGWETEDTKVIAVKLAALPKAGGTHKRVAVITQGTDPTIVAEDGKVTEFPVTPIPKEKLVDTNAAGDSFVGGFLSQLVLGKDIAQCVRAGNYAASVIIQRSGCTFPSKPSFESQ
stoichiometry N: 2
